Laboratory results reported in doi:10.1101/803833.

Biological target: human SNAP-tagged GLP-1R (glucagon-like peptide-1 receptor) on HEK293-SNAP-GLP-1R cells (human) (UniProt P43220)
Test: FRET or BRET

Sequence of UniProt P43220 (P43220 24-463): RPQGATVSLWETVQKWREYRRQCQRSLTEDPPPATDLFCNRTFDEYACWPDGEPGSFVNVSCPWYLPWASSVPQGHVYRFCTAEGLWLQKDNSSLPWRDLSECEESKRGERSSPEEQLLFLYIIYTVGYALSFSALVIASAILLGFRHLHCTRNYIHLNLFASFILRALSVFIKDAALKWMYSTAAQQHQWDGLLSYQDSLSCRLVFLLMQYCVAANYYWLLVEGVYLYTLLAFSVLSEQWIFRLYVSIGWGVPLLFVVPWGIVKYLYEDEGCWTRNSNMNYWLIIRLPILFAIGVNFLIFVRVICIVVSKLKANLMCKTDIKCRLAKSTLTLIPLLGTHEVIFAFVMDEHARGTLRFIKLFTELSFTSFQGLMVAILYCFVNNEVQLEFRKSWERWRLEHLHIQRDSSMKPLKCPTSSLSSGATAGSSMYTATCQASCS

Row | Substance | log Kd
1 | exendin-4 (from UniProt P26349 48-87) (peptide) | -9.2
2 | lixisenatide (peptide) | -9
